The results in this text go back to patent US20260070975A1.

For the assay, the target named is c-Kit expressed on the cell surface of M-07e cells (human) (UniProt P10721). The experiment in a line: flow cytometry on M-07e cells. Background: A flow cytometer gives signals particle by particle.
c-Kit expressed on the cell surface of M-07e cells (human), sequence (P10721 26-976): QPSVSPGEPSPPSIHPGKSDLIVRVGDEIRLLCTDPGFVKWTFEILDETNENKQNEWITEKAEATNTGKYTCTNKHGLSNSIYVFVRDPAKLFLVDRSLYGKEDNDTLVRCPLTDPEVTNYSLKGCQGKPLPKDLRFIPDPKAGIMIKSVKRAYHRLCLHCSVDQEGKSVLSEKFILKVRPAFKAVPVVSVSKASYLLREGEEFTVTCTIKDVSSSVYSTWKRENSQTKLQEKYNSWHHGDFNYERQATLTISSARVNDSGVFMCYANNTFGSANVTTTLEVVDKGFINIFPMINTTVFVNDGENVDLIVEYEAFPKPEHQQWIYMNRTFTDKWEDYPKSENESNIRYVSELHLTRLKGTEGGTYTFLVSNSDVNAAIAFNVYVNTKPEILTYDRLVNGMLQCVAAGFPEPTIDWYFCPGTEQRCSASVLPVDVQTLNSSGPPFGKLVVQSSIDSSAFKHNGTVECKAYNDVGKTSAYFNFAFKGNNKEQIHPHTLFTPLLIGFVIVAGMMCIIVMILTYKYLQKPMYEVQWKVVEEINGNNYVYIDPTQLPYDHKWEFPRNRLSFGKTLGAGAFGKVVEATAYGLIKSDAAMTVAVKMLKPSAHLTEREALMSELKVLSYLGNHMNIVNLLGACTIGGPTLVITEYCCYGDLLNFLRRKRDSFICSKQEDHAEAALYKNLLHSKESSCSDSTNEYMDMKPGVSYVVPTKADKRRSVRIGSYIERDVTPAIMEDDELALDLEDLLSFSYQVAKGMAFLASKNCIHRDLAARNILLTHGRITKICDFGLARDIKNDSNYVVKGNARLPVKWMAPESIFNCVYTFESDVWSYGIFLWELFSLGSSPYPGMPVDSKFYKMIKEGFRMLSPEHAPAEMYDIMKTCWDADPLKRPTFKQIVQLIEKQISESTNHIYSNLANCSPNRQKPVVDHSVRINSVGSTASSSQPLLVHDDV

Consider hIgG1 control (antibody), for which the Measuring Fluorescent Intensity (MFI) came to 85 MFI and the Percent Positive for c-Kit on M-07e cells was determined as 2.3%.
